This note sets out measurements from publication PMC6915727.

The test has as its target human Toll-like receptor 5 (TLR5) in stably transfected HEK293 cells (TLR5+) (human) (UniProt O60602).
UniProt O60602, sequence (O60602 21-858): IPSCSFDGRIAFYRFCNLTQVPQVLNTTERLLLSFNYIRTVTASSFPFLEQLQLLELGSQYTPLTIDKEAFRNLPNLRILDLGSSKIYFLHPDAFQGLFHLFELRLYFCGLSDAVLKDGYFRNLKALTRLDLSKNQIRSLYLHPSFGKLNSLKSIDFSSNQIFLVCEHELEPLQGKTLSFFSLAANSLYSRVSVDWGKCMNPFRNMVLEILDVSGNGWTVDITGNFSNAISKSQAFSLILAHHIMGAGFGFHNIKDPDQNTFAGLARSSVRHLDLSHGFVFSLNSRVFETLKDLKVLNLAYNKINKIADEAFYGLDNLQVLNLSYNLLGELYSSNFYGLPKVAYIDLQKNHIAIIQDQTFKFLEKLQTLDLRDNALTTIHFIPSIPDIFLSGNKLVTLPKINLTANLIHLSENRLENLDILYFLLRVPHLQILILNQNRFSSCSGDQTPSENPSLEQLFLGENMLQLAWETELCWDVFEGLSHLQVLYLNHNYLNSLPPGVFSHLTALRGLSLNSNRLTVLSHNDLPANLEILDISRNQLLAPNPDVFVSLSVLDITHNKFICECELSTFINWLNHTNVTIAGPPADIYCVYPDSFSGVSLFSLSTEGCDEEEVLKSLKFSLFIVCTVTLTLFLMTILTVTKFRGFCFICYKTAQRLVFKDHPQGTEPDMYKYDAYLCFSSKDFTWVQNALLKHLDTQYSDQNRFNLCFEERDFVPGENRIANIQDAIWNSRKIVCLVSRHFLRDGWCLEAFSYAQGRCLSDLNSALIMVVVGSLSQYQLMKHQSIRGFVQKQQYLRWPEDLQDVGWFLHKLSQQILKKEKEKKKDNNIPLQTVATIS

“recombinant CagL wild type (CagL^WT), C-terminal His-tag fusion (natural protein)”: the NF-κB luciferase activity in TLR5+ HEK293 cells, dose-response of recombinant CagL WT (EC50) is 0.173 µM.
